Usually Ki stands for a dissociation constant, usually derived from enzyme kinetics or from competition with a known ligand. A low value points to higher affinity.

The assay deals with Dyn A(1-11)NH2 (Rattus norvegicus). Nature of the assay: radioligand.

B1: KOR, P34975 (protein)
chain: MESPIQIFRGEPGPTCAPSACLLPNSSSWFPNWAESDSNGSVGSEDQQLEPAHISPAIPVIITAVYSVVFVVGLVGNSLVMFVIIRYTKMKTATNIYIFNLALADALVTTTMPFQSAVYLMNSWPFGDVLCKIVISIDYYNMFTSIFTLTMMSVDRYIAVCHPVKALDFRTPLKAKIINICIWLLASSVGISAIVLGGTKVREDVDVIECSLQFPDDEYSWWDLFMKICVFVFAFVIPVLIIIVCYTLMILRLKSVRLLSGSREKDRNLRRITKLVLVVVAVFIICWTPIHIFILVEALGSTSHSTAVLSSYYFCIALGYTNSSLNPVLYAFLDENFKRCFRDFCFPIKMRMERQSTNRVRNTVQDPASMRDVGGMNKPV
B1: the Ki worked out at 2.6 nM.

Values taken from publication PMC4771075.
